Consider 2 molecules from publication PMC4137058 (The Journal of Cell Biology, 2014).

The target of this experiment is T1, GST-tagged Sac1 (residues 2-460) (Saccharomyces cerevisiae, UniProt P32368 2-460).
T1 sequence (looked up): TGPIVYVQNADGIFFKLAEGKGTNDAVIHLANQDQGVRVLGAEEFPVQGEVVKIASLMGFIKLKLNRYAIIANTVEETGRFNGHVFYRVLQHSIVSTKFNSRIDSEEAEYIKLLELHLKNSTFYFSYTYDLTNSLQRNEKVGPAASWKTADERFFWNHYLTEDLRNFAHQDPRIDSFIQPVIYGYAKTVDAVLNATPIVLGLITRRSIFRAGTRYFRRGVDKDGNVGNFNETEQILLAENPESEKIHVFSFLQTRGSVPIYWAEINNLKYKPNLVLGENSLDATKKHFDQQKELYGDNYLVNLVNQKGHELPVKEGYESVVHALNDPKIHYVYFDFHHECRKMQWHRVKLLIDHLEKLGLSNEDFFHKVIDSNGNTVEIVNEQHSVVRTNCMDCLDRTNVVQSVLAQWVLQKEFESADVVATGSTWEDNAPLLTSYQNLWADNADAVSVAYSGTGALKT
The experiment can be described thus: pull-down.

B1: Vps74 (residues 46-345) (domain or fragment, Saccharomyces cerevisiae, UniProt Q06385 46-345, looked up)
chain: NKKIAYDPEESKLRDNINIPTLTLMEEVLLMGLRDREGYLSFWNDSISYALRGCIIIELALRGKIRILDDSARKRFDLSERLIEVIDSSKTGEVLLDETLQLMKNDEPLSISNWIDLLSGETWNLLKINYQLKQVRERLAKGLVDKGVLRTEMKNFFLFDMATHPIADASCKEAIKRRVLSVLVSRNMELSYNEYFPETTSFKIIRTLALICGSYGANVLENVLTTLEYEKRDKAISRAEEIMAQFSQYPFDLEKETELGVSVNLNKEVKEEIENNPGHDLQLEVIAGVFEVFSRMDMLL
Take B1: the binding result is reported as “binds”.

B2: Vps74 (Y260S, N263S, E266S, Y274S, and D278S) (domain or fragment, Saccharomyces cerevisiae, UniProt Q06385 46-345, looked up)
chain: NKKIAYDPEESKLRDNINIPTLTLMEEVLLMGLRDREGYLSFWNDSISYALRGCIIIELALRGKIRILDDSARKRFDLSERLIEVIDSSKTGEVLLDETLQLMKNDEPLSISNWIDLLSGETWNLLKINYQLKQVRERLAKGLVDKGVLRTEMKNFFLFDMATHPIADASCKEAIKRRVLSVLVSRNMELSYNEYFPETTSFKIIRTLALICGSSGASVLSNVLTTLESEKRSKAISRAEEIMAQFSQYPFDLEKETELGVSVNLNKEVKEEIENNPGHDLQLEVIAGVFEVFSRMDMLL
On to B2, for which the binding result is reported as “binds”.
